{"source": "patent US11653679B2", "about": "“High-purity steviol glycosides” (PureCircle Sdn Bhd, priority 2014, dated 2023)", "molecules": {"B1": {"name": "UGTSL2: UDP-glucosyltransferase, Solanum lycopersicum, SEQ ID NO:9 (protein, listed as Solanum lycopersicum)", "chain": "MATNLRVLMFPWLAYGHISPFLNIAKQLADRGFLIYLCSTRINLESIIKKIPEKYADSIHLIELQLPELPELPPHYHTTNGLPPHLNPTLHKALKMSKPNFSRILQNLKPDLLIYDVLQPWAEHVANEQNIPAGKLLTSCAAVFSYFFSFRKNPGVEFPFPAIHLPEVEKVKIREILAKEPEEGGRLDEGNKQMMLMCTSRTIEAKYIDYCTELCNWKVVPVGPPFQDLITNDADNKELIDWLGTKHENSTVFVSFGSEYFLSKEDMEEVAFALELSNVNFIWVARFPKGEERNLEDALPKGFLERIGERGRVLDKFAPQPRILNHPSTGGFISHCGWNSAMESIDFGVPIIAMPIHNDQPINAKLMVELGVAVEIVRDDDGKIHRGEIAETLKSVVTGETGEILRAKVREISKNLKSIRDEEMDAVAEELIQLCRNSNKSK"}}, "format_in_all_cases": "biochemical", "key": {"[1]": {"assay": "Activity for Stevioside to Rebaudioside E conversion with UGTSL, UGTSL2, UGTLB (Examples 28, 32)", "conditions": "reaction time UGTSL 22 h., UGTSL2 2 h., 600 μL lysate, based on initial concentration of Stevioside", "method": "Activity tests were performed at 3 mL scale with 600 μL of lysate for the transformation of Stevioside using 0.5 mM of substrate, 2.5 mM of UDP-Glucose and 3 mM MgCl2 in 50 mM Sodium Phosphate buffer at pH 7.2. Samples were taken and analyzed by HPLC. HPLC Analysis. The HPLC assay was performed as described in EXAMPLE 20.\nActivity tests were performed at 3 mL scale with 600 μL of lysate for the transformation of Stevioside using 0.5 mM of substrate, 2.5 mM of UDP-Glucose and 3 mM MgCl2 in 50 mM Sodium Phosphate buffer at pH 7.2. Samples were taken and analyzed by HPLC. The corresponding chromatograms are depicted in FIG. 63a."}, "[2]": {"assay": "Activity for Rubusoside to Rebaudioside E conversion with UGTSL, UGTSL2, UGTLB (Examples 29, 32)", "conditions": "reaction time UGTSL 45 h., UGTSL2 2 h., 600 μL lysate, based on initial concentration of Rubusoside", "method": "Activity tests were performed at 3 mL scale with 600 μL of lysate for the transformation of Rubusoside using 0.5 mM of substrate, 2.5 mM of UDP-Glucose and 3 mM MgCl2 in 50 mM Sodium Phosphate buffer at pH 7.2. Samples were taken and analyzed by HPLC. The HPLC assay was performed as described in EXAMPLE 20.\nActivity tests were performed at 3 mL scale with 600 μL of lysate for the transformation of Rubusoside using 0.5 mM of substrate, 2.5 mM of UDP-Glucose and 3 mM MgCl2 in 50 mM Sodium Phosphate buffer at pH 7.2. Samples were taken and analyzed by HPLC. The corresponding chromatograms are depicted in FIG. 63b."}, "[3]": {"assay": "Activity for Rebaudioside A to Rebaudioside D conversion with UGTSL2, UGTLB (Examples 30, 32)", "conditions": "23 h., 60 μL lysate, based on initial concentration of Rebaudioside A", "method": "Activity tests were performed at 3 mL scale with 60 μL of lysate for the transformation of Rebaudioside A using 0.5 mM of substrate, 2.5 mM of UDP-Glucose and 3 mM MgCl2 in 50 mM Sodium Phosphate buffer at pH 7.2. Samples were taken and analyzed by HPLC. The HPLC assay was performed as described in EXAMPLE 20.\nActivity tests were performed at 3 mL scale with 600 μL of lysate for the transformation of Rebaudioside A using 0.5 mM of substrate, 2.5 mM of UDP-Glucose and 3 mM MgCl2 in 50 mM Sodium Phosphate buffer at pH 7.2. Samples were taken and analyzed by HPLC. The corresponding chromatogram after 23 h. of reaction is depicted in FIG. 63c."}, "[4]": {"assay": "Rubusoside conversion products with UGTSL, UGTSL2, UGTLB by LCMS (Example 33)", "conditions": "reaction time UGTSL2 2 hrs, UGTLB 5 hrs, UGTSL 45 hrs", "method": "(§1) Conversion of stevioside with UGTSL and UGTSL2 was conducted in similar manner to Example 28, and the conversion of rubusoside with UGTSL and UGTSL2 was conducted similarly to Example 29. Conversions of rubusoside and stevioside with UGTLB was conducted similarly to Example 32.\n(§2) The reaction mixtures were analyzed by LCMS to determine all reaction products."}, "[5]": {"assay": "Stevioside conversion products with UGTSL, UGTSL2, UGTLB by LCMS (Example 33)", "conditions": "reaction time UGTSL2 2 hrs, UGTLB 2 hrs, UGTSL 22 hrs", "method": "as §1, §2"}, "[6]": {"assay": "Directed evolution of UGTSL2, Rebaudioside A to Rebaudioside D, round 1 (Example 45)", "method": "Lysis was performed by addition of Bugbuster® Master mix (Novagen®) to the thawed cells and the lysate was recovered by centrifugation. […]\nThe reaction was allowed to run at 30° C. and samples were taken after 2, 4, 6 and 22 h. to determine the initial rate by HPLC (CAD detection) using the analytical method that was described above for the transformation of Rebaudioside A to Rebaudioside D. In parallel the experiments were performed with baseline clone, UGTSL2. The initial rate for this baseline clone was defined as 100%. As an indication of the specificity of the clones, Rebaudioside M2 content was determined at 100% UDP-Glucose conversion and Rebaudioside D2 content was determined at 50% UDP-Glucose conversion. Wherein UDP glucose conversion is defined as: ([Reb D]/[Reb A]0)+([Reb D2]/[Reb A]0)+2*([Reb M2]/[Reb A]0).\nThe normalized initial rate, Rebaudioside M2 content at 100% UDP-glucose conversion and Rebaudioside D2 content at 50% UDP-glucose conversion are depicted in the following table"}, "[7]": {"assay": "Directed evolution of UGTSL2 round 2, initial rate for Rebaudioside A conversion (Example 48)", "conditions": "UGTSL2 round 2 clone lysates, 0.5 mM Rebaudioside A, 30° C., pH 7.2; baseline clone UGTSL2 defined as 100%", "method": "(§3) In order to measure the activity of the variants for the transformation of Rebaudioside A to Rebaudioside D, 100 μL of fresh lysate was added to a solution of Rebaudioside A (final concentration 0.5 mM), MgCl2 (final concentration 3 mM) and UDP-Glucose (final concentration 2.5 mM) in 50 mM phosphate buffer pH 7.2. The reaction was allowed to run at 30° C. and samples were taken after 2, 4, 6 and 22 h. to determine the initial rates after HPLC analysis (CAD detection) using the analytical method that was described above for the transformation of Rebaudioside A to Rebaudioside D.\n(§4) Apart from the new variants, both experiments were also performed with baseline clone, UGTSL2. The initial rates for the conversion of Rebaudioside A or Rebaudioside D for this baseline clone were defined as 100%.\n(§5) Activity of each clone was defined as normalized activity compared to baseline clone UGTSL2 whereas specificity of each clone was expressed as the ratio between the initial rates for the conversion of Rebaudioside A and Rebaudioside D."}, "[8]": {"assay": "Directed evolution of UGTSL2 round 2, initial rate for Rebaudioside D conversion (Example 48)", "conditions": "UGTSL2 round 2 clones; specificity", "method": "The reaction was allowed to run at 30° C. and samples were taken after 2, 4, 6 and 22 h. to determine the initial rates for Rebaudioside D conversion after HPLC analysis (CAD detection).\nas §4, §5"}, "[9]": {"assay": "Directed evolution of UGTSL2 round 3, initial rate for Rebaudioside A conversion (Example 53)", "conditions": "UGTSL2 round 3 clone lysates, 0.5 mM Rebaudioside A, 30° C., pH 7.2; baseline clone UGTSL2 defined as 100%", "method": "as §3\n(§6) Apart from the new variants for this round, both experiments were also performed with baseline clone, UGTSL2. The initial rates for the conversion of Rebaudioside A or Rebaudioside D for this baseline clone were defined as 100%.\nas §5"}, "[10]": {"assay": "Directed evolution of UGTSL2 round 3, initial rate for Rebaudioside D conversion (Example 53)", "conditions": "UGTSL2 round 3 clones; specificity", "method": "In parallel 100 μL of fresh lysate was added to a solution of Rebaudioside D (final concentration 0.5 mM), MgCl2 (final concentration 3 mM) and UDP-Glucose (final concentration 2.5 mM) in 50 mM phosphate buffer pH 7.2. The reaction was allowed to run at 30° C. and samples were taken after 2, 4, 6 and 22 h. to determine the initial rates for Rebaudioside D conversion after HPLC analysis (CAD detection).\nas §6, §5"}, "[11]": {"conditions": "0.5 mM substrate, 2.5 mM UDP-Glucose, pH 7.2"}, "[12]": {"conditions": "UGTSL2 round 1 clones, indication of specificity"}}, "data": [{"molecule": "B1", "values": [{"measurement": "Rebaudioside E formation", "setting": "[1]; 0.5 mM Stevioside", "result": 50, "unit": "%"}, {"measurement": "Stevioside conv. (reaction time)", "setting": "[1]; [11]", "result": "77% (2 h.)"}, {"measurement": "Rebaudioside E formation", "setting": "[2]; 0.5 mM Rubusoside", "result": 55, "unit": "%"}, {"measurement": "Rubusoside conv. (reaction time)", "setting": "[2]; [11]", "result": "80% (2 h.)"}, {"measurement": "Rebaudioside D formation", "setting": "[3]; 0.5 mM Rebaudioside A", "result": 75, "unit": "%"}, {"measurement": "Rebaudioside A conv. (reaction time)", "setting": "[3]; [11]", "result": "78% (23 h.)"}, {"measurement": "LC-MS, peak area ratio (%): REb E", "setting": "[4]", "result": 52.88, "unit": "%"}, {"measurement": "LC-MS, peak area ratio (%): Reb D", "setting": "[4]", "result": 6.73, "unit": "%"}, {"measurement": "LC-MS, peak area ratio (%): Rub", "setting": "[4]", "result": 3.54, "unit": "%"}, {"measurement": "LC-MS, peak area ratio (%): Stev", "setting": "[4]", "result": 2.12, "unit": "%"}, {"measurement": "LC-MS, peak area ratio (%): Unknown peak #1 (MW804) RT 30.70 min", "setting": "[4]", "result": 12.02, "unit": "%"}, {"measurement": "LC-MS, peak area ratio (%): Unknown peak #2 (MW804) RT 49.50 min", "setting": "[4]", "result": 9.94, "unit": "%"}, {"measurement": "LC-MS, peak area ratio (%): Unknown peak #3 (MW804) RT 50.40 min", "setting": "[4]", "result": 12.77, "unit": "%"}, {"measurement": "LC-MS, peak area ratio (%): Reb D", "setting": "[5]", "result": 1.70, "unit": "%"}, {"measurement": "LC-MS, peak area ratio (%): Reb E", "setting": "[5]", "result": 42.56, "unit": "%"}, {"measurement": "LC-MS, peak area ratio (%): Stev", "setting": "[5]", "result": 20.01, "unit": "%"}, {"measurement": "LC-MS, peak area ratio (%): Unknown peak #1 (MW966) RT = 22.60 min", "setting": "[5]", "result": 4.48, "unit": "%"}, {"measurement": "LC-MS, peak area ratio (%): Unknown peak #2 (MW966) RT = 26.50 min", "setting": "[5]", "result": 5.56, "unit": "%"}, {"measurement": "LC-MS, peak area ratio (%): Unknown peak #3 (MW966) RT = 29.50 min", "setting": "[5]", "result": 25.70, "unit": "%"}, {"measurement": "Normalized initial rate (0-4 h)", "setting": "[6]; UGTSL2 round 1 clone lysates, 30° C., pH 7.2, HPLC (CAD), baseline clone UGTSL2 defined as 100%", "result": 100, "unit": "%"}, {"measurement": "Reb D2 content at 50% UDP-Glc conversion", "setting": "[6]; [12]", "result": 12.5, "unit": "%"}, {"measurement": "Reb M2 content at 100% UDP-Glc conversion", "setting": "[6]; [12]", "result": 100, "unit": "%"}, {"measurement": "Normalized initial rate for conversion of Rebaudioside A", "setting": "[7]", "result": 100, "unit": "%"}, {"measurement": "Ratio between initial rates for the conversion of Rebaudioside A and Rebaudioside D", "setting": "[8]", "result": 1.67}, {"measurement": "Normalized initial rate for conversion of Rebaudioside A", "setting": "[9]", "result": 100, "unit": "%"}, {"measurement": "Ratio between initial rates for the conversion of Rebaudioside A and Rebaudioside D", "setting": "[10]", "result": 1.67}]}]}
